Measurements published in PMC10160976 (Proceedings of the National Academy of Sciences of the …, 2023).

T1: human LPL^S132A/R297A (inactive lipoprotein lipase mutant) (human, UniProt P06858 28-475, S132A | R297A)
T1 sequence (looked up): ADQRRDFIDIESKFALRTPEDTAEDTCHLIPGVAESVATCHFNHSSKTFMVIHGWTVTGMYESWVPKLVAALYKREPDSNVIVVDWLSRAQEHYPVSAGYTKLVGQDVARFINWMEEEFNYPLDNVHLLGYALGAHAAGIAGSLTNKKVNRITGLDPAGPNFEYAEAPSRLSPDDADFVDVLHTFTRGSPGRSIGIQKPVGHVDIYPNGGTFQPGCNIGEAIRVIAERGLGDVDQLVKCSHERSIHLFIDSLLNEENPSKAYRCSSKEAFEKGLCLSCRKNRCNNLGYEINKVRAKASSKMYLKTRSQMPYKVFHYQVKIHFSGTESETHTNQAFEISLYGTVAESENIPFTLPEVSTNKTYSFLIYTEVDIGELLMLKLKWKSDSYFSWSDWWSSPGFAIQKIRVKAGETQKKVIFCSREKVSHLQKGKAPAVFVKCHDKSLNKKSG


Columns and labels:
[1] = target: T1, human LPL^S132A/R297A (inactive …); test: HDX-MS
[2] = target: T1, human LPL^S132A/R297A (inactive …); test: cell-based or functional assay

Row | binding result [1] | Binder | onset of LPL aggregation (turbidity, proxy for Tm) against APOC2^Q70E [2] [°C]
1 | binds | soluble truncated human GPIHBP1 (residues 1 to 131) (domain or fragment, UniProt Q8IV16 21-151, looked up) QTQQEEEEEDEDHGPDDYDEEDEDEVEEEETNRLPGGRSRVLLRCYTCKSLPRDERCNLTQNCSHGQTCTTLIAHGNTESGLLTTHSTWCTDSCQPITKTVEGTQVTMTCCQSSLCNVPPWQSSRVQDPTG | 
2 |  | APOC2^wt (apolipoprotein C2, N-terminal 6xHis-tag) (natural protein, UniProt P02655 23-101, looked up) TQQPQQDEMPSPTFLTQVKESLSSYWESAKTAAQNLYEKTYLPAVDEKLRDLYSKSTAAMSTYTGIFTDQVLSVLKGEE | > 20
